Kd data for one molecule are collected here from article PMC8924211 (Nature Communications, 2022).

Experiment in all cases: AlphaScreen or HTRF; saturation binding: HEK293 cells transfected with SNAP-tagged receptor (WT or mutant) and labelled with SNAP-Lumi4-Tb, incubated with increasing concentrations of galanin-A2 in the presence or absence of 100 uM unlabeled galanin, 1 h at room temperature; HTRF ratio 665 nm/620 nm
Conditions in all cases: one partner purified
For orientation: Alpha assays give light when donor and acceptor beads are brought close together.

For one test, the target named is T1, SNAP-GAL1R H112^3.29A (human, UniProt P47211 1-349, H112^3.29A, Lumi4-Tb on the SNAP tag).
T1 construct: also called H112A; source: HEK293, transfected, on cells; not shown: SNAP tag, N-terminal, kept
T1 sequence (looked up): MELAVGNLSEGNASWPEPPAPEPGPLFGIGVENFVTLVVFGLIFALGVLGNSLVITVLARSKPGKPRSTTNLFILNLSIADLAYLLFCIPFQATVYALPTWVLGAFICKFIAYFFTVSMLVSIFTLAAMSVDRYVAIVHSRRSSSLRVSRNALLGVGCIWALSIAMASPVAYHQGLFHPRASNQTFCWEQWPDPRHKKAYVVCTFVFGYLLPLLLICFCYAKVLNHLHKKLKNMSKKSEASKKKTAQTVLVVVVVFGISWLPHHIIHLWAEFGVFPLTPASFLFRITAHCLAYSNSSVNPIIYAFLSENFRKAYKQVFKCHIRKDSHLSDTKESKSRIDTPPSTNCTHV

The next test addresses T2, SNAP-GAL1R Q174^4.64A (human, UniProt P47211 1-349, Q174^4.64A, Lumi4-Tb on the SNAP tag).
T2 construct: also called Q174A; source: HEK293, transfected, on cells; not shown: SNAP tag, N-terminal, kept
T2 sequence (looked up): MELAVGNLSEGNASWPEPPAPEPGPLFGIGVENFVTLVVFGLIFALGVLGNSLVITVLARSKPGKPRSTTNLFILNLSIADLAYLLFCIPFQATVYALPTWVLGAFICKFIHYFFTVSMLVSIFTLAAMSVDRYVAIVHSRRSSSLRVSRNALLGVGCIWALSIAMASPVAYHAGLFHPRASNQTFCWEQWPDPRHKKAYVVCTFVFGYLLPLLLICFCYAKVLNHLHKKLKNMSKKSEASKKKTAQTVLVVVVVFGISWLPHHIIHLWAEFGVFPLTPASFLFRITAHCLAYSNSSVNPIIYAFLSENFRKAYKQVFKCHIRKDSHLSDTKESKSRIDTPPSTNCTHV

The target of the next test is T3, SNAP-GAL1R I266^6.54A (human, UniProt P47211 1-349, I266^6.54A, Lumi4-Tb on the SNAP tag).
T3 construct: also called I266A; source: HEK293, transfected, on cells; not shown: SNAP tag, N-terminal, kept
T3 sequence (looked up): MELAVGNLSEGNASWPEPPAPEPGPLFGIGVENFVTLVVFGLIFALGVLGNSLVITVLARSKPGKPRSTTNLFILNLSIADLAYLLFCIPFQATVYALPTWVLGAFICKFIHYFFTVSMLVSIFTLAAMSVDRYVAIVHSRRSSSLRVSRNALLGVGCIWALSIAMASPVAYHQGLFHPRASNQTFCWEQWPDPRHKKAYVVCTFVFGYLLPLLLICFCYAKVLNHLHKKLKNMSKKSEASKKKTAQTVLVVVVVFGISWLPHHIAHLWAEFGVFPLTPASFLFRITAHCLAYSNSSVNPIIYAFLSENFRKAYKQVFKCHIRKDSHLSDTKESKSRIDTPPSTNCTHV

In the next test the target is T4, SNAP-GAL1R R285^7.35A (human, UniProt P47211 1-349, R285^7.35A, Lumi4-Tb on the SNAP tag).
T4 construct: also called R285A; source: HEK293, transfected, on cells; not shown: SNAP tag, N-terminal, kept
T4 sequence (looked up): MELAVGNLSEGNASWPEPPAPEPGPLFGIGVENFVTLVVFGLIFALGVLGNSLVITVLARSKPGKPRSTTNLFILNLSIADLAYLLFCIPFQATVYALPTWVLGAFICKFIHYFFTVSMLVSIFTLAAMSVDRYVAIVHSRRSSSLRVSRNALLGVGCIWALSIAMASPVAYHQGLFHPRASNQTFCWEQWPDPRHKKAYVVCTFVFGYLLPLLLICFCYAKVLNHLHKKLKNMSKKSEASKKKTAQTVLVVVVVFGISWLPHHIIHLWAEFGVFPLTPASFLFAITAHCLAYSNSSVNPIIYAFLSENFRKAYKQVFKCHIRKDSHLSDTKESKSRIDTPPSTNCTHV

Test [1] addresses T5, N-terminal-SNAP-tagged GAL1R, wild type (human, UniProt P47211 1-349, Lumi4-Tb on the SNAP tag).
T5 construct: also called SNAP-GAL1R; GAL1R WT; source: HEK293, transfected, on cells; not shown: SNAP tag, N-terminal, kept
T5 sequence (looked up): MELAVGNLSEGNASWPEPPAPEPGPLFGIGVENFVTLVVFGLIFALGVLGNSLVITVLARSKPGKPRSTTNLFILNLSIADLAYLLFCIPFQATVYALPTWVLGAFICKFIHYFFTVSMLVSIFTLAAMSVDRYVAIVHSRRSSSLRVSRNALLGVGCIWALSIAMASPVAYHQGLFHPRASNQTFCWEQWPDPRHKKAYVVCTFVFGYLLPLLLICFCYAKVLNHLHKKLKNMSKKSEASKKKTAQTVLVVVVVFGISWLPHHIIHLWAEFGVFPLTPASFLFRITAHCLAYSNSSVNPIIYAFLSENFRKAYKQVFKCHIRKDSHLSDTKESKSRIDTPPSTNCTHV

One may read the Kd as the constant that tells how readily two partners part at equilibrium.

B1: galanin-A2 (full-length galanin labeled with the dye A2 on an additional cysteine at the C-terminal end) (peptide)
peptide: GWTLNSAGYLLGPHAVGNHRSFSDKNGLTSC
modifications: dye A2 on the additional C-terminal cysteine
notes: numbers count on: the mature protein; additional cysteine at the C-terminal end of the peptide, carries the dye A2; source: synthetic peptide (synthesized by Vazyme, China)
Regarding B1, the Kd with SNAP-GAL1R H112^3.29A was 0.0598 µM; with SNAP-GAL1R Q174^4.64A it was 0.351 µM; with SNAP-GAL1R I266^6.54A it was 0.245 µM; with SNAP-GAL1R R285^7.35A, 0.159 µM; in test [1] it was 0.0222 µM.
